From patent US20210389324

What was measured:
[1] = tested on: CFP-TRIM14-YFP 25-residue substrate
[2] = tested on: CFP-V12-YFP

In the case of “Recombinant VEEV nsP2-thioredoxin Protease containing residues 457-792”, the Km [1] is reported as 21 µM, the Vmax [1] is reported as 0.056 U/mg and the “cleavage of CFP-YFP substrate” value [1] is reported as “VEEV nsP2 cysteine protease”. The Km [2] was 12 µM, the Vmax [2] was 0.059 U/mg and the “cleavage of CFP-YFP substrate” value [2] was “VEEV nsP2 cysteine protease”.
